Test results published in patent US20190233528A1 (published 2019).

B1: P12B09 anti-CD70 scFv-Fc fusion (Fc fusion)
chain: EVQLLESGGGLVQPGGSLRLSCAASGFTFSQYSMSWVRQAPGKGLEWVSAISGGGVSTYYADSVKGRFTISRDNSKNTLYLQMNSLRAEDTAVYYCASDISDSGGSHWYFDYWGQGTLVTVSSGGGGSGGGGSGGGGSGGGGSELDIQMTQSPSSLSASVGDRVTITCRASQYIGRYLNWYQQKRGKAPKLLIHGATSLASGVPSRFSGSGSGTDFTLTISSLQPEDFATYYCQQSYSTTSPTFGQGTKVEIK
notes: scFv-Fc expressed in Expi293; not shown: part of the hinge and Fc from a modified human IgG2
B2: 9E10 anti-CD70 scFv-Fc fusion (Fc fusion)
chain: QVQLVQSGAEVTKPGASVKVSCKASGYTFTSHYIYWVRQAPGQGLEWMGWINPNSGGTNYAQKFQDRVTMARDTSISTAYMELSRLRSDDTAVYYCAKDRKREYYYNFGMDVWGQGTTVTVSAGGGGSGGGGSGGGGSGGGGSDIQMTQSPSSLSASVGDRVILTCQASQDISNYLHWYQQKPGKAPKLLIYDASDLETGVPSRFSGSGSGADFTFTISNLQPEDFATYYCQQYDHLPITFGQGTRLEIK
notes: as for B1
B3: P08G02 anti-CD70 scFv-Fc fusion (Fc fusion)
chain: EVQLVQSGAEVKKPGESLKISCKGSGYTFPSSWIGWVRQMPGKGLEWMGIIYPDTSHTRYSPSFQGQVTISADKSISTAYLQWSSLKASDTAMYYCARASYFDRGTGYSSWWMDVWGQGTLVTVSSGGGGSGGGGSGGGGSGGGGSELDIQMTQSPSSLSASVGDRVTITCRASQSIYDYLHWYQQKPGKAPKLLIYDASNLQSGVPSRFSGSGSGTDFTLTISSLQPEDFATYYCQQSYTTPLFTFGQGTKVEIK
notes: as for B1
B4: 12C4 anti-CD70 scFv-Fc fusion (Fc fusion)
chain: QVQLVQSGAEVKKPGASVKVSCKASGYTFTGYYLHWVRQAPGQGLEWMGWINPNSGGTNYAQKFQGRVTMTRDTSITTAYMELSRLRIDDTAVYYCARDRGVTMIVDGMDDWGQGTTVTVSSGGGGSGGGGSGGGGSGGGGSDIVMTQSPLSLPVTPGEPASISCRSSQSLLHSNGYNYLDWYLQKPGQSPQVLILLGSNRASGVPDRVSASGSGTDFTLKISRMQAEDVGIYYCMQTLQTPFTFGQGTKLEIK
notes: as for B1
B5: 12D7 anti-CD70 scFv-Fc fusion (Fc fusion)
chain: QVQLVESGGGVVQPGRSLRLSCVASGFTFSDYGIHWVRQAPGMGQEWVAVIWYDGSIKKYSDSVKGRFIISRDNSENTVYLQMNSLRGEDTAIYYCARDEVGTFGAFDFWGQGTKVTVSSGGGGSGGGGSGGGGSGGGGSDIQLTQSPSFLSASVGDRVSITCRASQDISSFLAWYQQKPGKAPVLLIYVASTLQSGVPSRFSGSGSGTEFTLTVSSLQPEDFATYYCQQLHVYPITFGQGTRLEIR
notes: as for B1
B6: P08F08 anti-CD70 scFv-Fc fusion (Fc fusion)
chain: EVQLVQSGAEVKKPGESLKISCKGSGYGFTSYWIGWVRQMPGKGLEWMGIIHPDDSDTKYSPSFQGQVTISADKSISTAYLQWSSLKASDTAMYYCASSYLRGLWGGYFDYWGQGTLVTVSSGGGGSGGGGSGGGGSGGGGSELQSVLTQPPSASGTPGQRVTISCSGSSSNIGSNYVNWYQQLPGTAPKLLIYGDYQRPSGVPDRFSGSKSGTSASLAISGLRSEDEADYYCATRDDSLSGSVVFGTGTKLTVL
notes: as for B1
B7: 4F11 anti-CD70 scFv-Fc fusion (Fc fusion)
chain: QVTLKESGPVLVKPTETLTLTCTVSGFSLSNARMGVTWIRQPPGKALEWLAHIFSNDEKSYSTSLKSRLTISKDTSKTQVVLTMTNMDPVDTATYYCARIRDYYDISSYYDYWGQGTLVSVSSGGGGSGGGGSGGGGSGGGGSDIQMTQSPSAMSASVGDRVTITCRASQDISNYLAWFQQKPGKVPKRLIYAASSLQSGVPSRFSGSGSGTEFTLTISSLLPEDFATYYCLQLNSFPFTFGGGTKVEIN
notes: as for B1
B8: P15D02 anti-CD70 scFv-Fc fusion (Fc fusion)
chain: EVQLVQSGAEVKKPGESLKISCKGSGYSFASYWIGWVRQMPGKGLEWMGVIYPGTSETRYSPSFQGQVTISADKSISTAYLQWSSLKASDTAMYYCAKGLSASASGYSFQYWGQGTLVTVSSGGGGSGGGGSGGGGSGGGGSELDIQMTQSPSSLSASVGDRVTITCRASQSIDTYLNWYQQKPGKAPKLLIYSASSLHSGVPSRFSGSGSGTDFTLTISSLQPEDFATYYCQQSYSTTAWTFGQGTKVEIK
notes: as for B1
B9: 11C1 anti-CD70 scFv-Fc fusion (Fc fusion)
chain: QVQLQESGPGLVKPSETLSLNCTVSGGSISYYYWTWIRQPPGKGLEWIGHVIYSGTTNYNPSLKSRVTISVDTSKNQFSLKLNSVTAADTAVYYCVRAEGSLDAFDLWGQGTMVTVSSGGGGSGGGGSGGGGSGGGGSDIQMTQSPSILSASVGDRVTITCRASQSVSSWLAWYQQKPGKAPKVLIYKASSLESGVPSRFSGTGSGTEFTLTISSLQSDDFATYYCQQYNTYSHTFGQGTKLEIK
notes: as for B1
B10: 10H10 anti-CD70 scFv-Fc fusion (Fc fusion)
chain: EVQLVESGGGLVQPGGSLRLSCAVSGFTFSNHNIHWVRQAPGKGLEWISYISRSSSTIYYADSVKGRFTISRDNAKNSLYLQMNSLRDEDTAVYYCARDHAQWYGMDVWGQGTTVTVSSGGGGSGGGGSGGGGSGGGGSDIQMTQSPSSVSASVGDRVTITCRASQGISSWLAWYQQKPGKAPKVLIYAASSLQSGVPSRFSGSGSGTDFTLTISSLQPEDFATYYCQQAFSFPFTFGPGTKVDIK
notes: as for B1
B11: 8C8 anti-CD70 scFv-Fc fusion (Fc fusion)
chain: EVQLVESGGGLVKPGGSLRLSCVASGFTFSSYSMNWVRQFPGKGLEWVSSISTSSNYIHYADSLQGRFTISRDNAKNSLYLQMSSLRVEDTAVYYCVRDKGTTLTNWYFDLWGRGTLVTVSSGGGGSGGGGSGGGGSGGGGSDMQMTQSPSSLSASVGDRVTLTCRASQGISNYLAWFQLKPGKVPKLLIYAASTLQSGVPSRFSGSGSGTDFALTISSLQPEDVATYYCQKYNSAPLTFGGGTKVEIK
notes: as for B1
B12: P08E02 anti-CD70 scFv-Fc fusion (Fc fusion)
chain: EVQLVQSGAEVKKPGESLKISCKGSGYSFTSSWIGWVRQMPGKGLEWMGIIYPGDSDTRYSPSFQGQVTISADKSISTAYLQWSSLKASDTAMYYCAKGLSQAMTGFGFDYWGQGTLVTVSSGGGGSGGGGSGGGGSGGGGSELDIQMTQSPSSLSASVGDRVTITCRASQSISRYLNWYQQKPGKAPKLLIYAASILQTGVPSRFSGSGSGTDFTLTISSLQPEDFATYYCQQSYSTTMWTFGQGTKVEIK
notes: as for B1
B13: 10A1 anti-CD70 scFv-Fc fusion (Fc fusion)
chain: QVQLQESGPGLVKPSETLSLTCTVSGGSISYYYWTWIRQPPGKGLEWIGHIYYSGSTNYNPSLKSRVTISIDTSKNLFSLKLSSVTAADTAVYYCARAEGSLDAFDFWGQGTMVTVSSGGGGSGGGGSGGGGSGGGGSDIQMTQSPSTLSASVGDRVTITCRASQSISTWLAWYQQKPGKAPKVLIYKASSLESGVPSRFSGSGSGTEFILTINSLQPDDFASYYCQQYKSYSHTFGQGTKLEIK
notes: as for B1
B14: 11E1 anti-CD70 scFv-Fc fusion (Fc fusion)
chain: QVQLQESGPGLVKPLQTLSLTCTVSGGSISSDGYYWSWIRQNPGKGLEWIGYMYYSGSTYYNPSLKSRVTISVDTSKNQFSLKLRSVTAADTAVYYCTRDFGWYFDLWGRGTLVTVSSGGGGSGGGGSGGGGSGGGGSDIQMTQSPSSLSASVGDSITITCRASQDIDNYLAWYQQKTGKVPKVLIYAASALQSGVPSRFSGSGSGTDFTLTISSLQPEDVATYYCQNYNSGPRTFGQGTKVEIK
notes: as for B1
B15: 12D6 anti-CD70 scFv-Fc fusion (Fc fusion)
chain: QVQLQESGPGLVKPSQTLSLTCTVSGGSISSDAYYWSWIRQHPGKGLEWIGYMYYSGITYYNPSLKSRVTISVDTSKNQFSLKLSSVTAADTAVYYCARDFGWYFDLWGRGTLVTVSSGGGGSGGGGSGGGGSGGGGSDIQMTQSPSSLSASVGDRVTITCRASQDISNYLAWYQQKPGKVPKLLIYAASTLHSGVPSRFSGSGSGTDFTLTISSLQPDDFAAYYCQKYNSAPRTFGQGTKVEIK
notes: as for B1

Each binder was assayed against T1, recombinant human CD70 (AviTag, polyhistidine tag and chicken tenascin trimerization domain fused to the … (chicken; human, UniProt P10039 110-139, limits assumed) (assay: SPR (Biacore 8K, 37 C): CD70 captured via anti-AviTag antibody on C1 chip, scFv-Fc as analyte; 1:1 Langmuir fit).
T1 construct: domain: trimerization domain; Expressed in Expi293, purified by IMAC and SEC; Copies 3 is inferred from the trimerization domain; not shown: AviTag; polyhistidine tag
T1 sequence: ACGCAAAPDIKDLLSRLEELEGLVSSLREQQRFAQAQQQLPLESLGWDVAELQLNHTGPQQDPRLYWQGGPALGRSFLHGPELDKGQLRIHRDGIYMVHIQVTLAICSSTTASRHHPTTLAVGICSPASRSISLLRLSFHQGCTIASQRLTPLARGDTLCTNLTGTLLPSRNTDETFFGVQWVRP
Method: The antibody binding kinetics were determined by surface plasmon resonance (Biacore 8K, GE Healthcare Bio-Sciences, Pittsburgh Pa.) at 37° C. in HBS-T+ (0.01 M HEPES pH 7.4, 0.15 M NaCl, 0.05% v/v Tween20, 1 mg/mL BSA). Recombinant human CD70 diluted in HBS-T+ was captured on a C1 chip immobilized with an anti-AviTag™ antibody. Purified anti-CD70 scFv-Fc fusions were serially diluted into HBS-T+, injected at 30 uL/min for 2-4 min, dissociation monitored for 10 min then the surface regenerated with 75 mM phosphoric acid between injections. Buffer cycles were collected for each anti-CD70 scFv-Fc fusion for double-referencing purposes (double-referencing as described in Myszka, D. G. Improving biosensor analysis. J. Mol. Recognit. 12, 279-284 (1999)). Kinetic association rates (kₒₙ) and dissociation rates (koff) were obtained simultaneously by fitting the double-referenced sensorgrams globally to a 1:1 Langmuir with mass transport model using Biacore 8K Evaluation Software (GE Healthcare Bio-Sciences, Pittsburgh Pa.) then used to calculate an equilibrium dissociation constant (KD) from the kinetic rate constants (KD=koff/kₒₙ). The data was fit to a 1:1 steady state affinity model using Biacore 8K Evaluation Software to determine a steady state equilibrium dissociation constant (SS KD) as needed.

Kd	koff	kon	t1/2	Binder
4.1 nM	0.00135 s⁻¹	330000 M⁻¹ s⁻¹	8.6 min	B1
2.6 nM	0.00212 s⁻¹	825000 M⁻¹ s⁻¹	5.4 min	B2
330 nM	0.00788 s⁻¹	23900 M⁻¹ s⁻¹	1.5 min	B3
0.3 nM	0.000455 s⁻¹	1.56e+06 M⁻¹ s⁻¹	25.3 min	B4
1.7 nM	0.000755 s⁻¹	441000 M⁻¹ s⁻¹	15.3 min	B5
10.7 nM	0.0153 s⁻¹	1.44e+06 M⁻¹ s⁻¹	0.8 min	B6
1.9 nM	0.0016 s⁻¹	825000 M⁻¹ s⁻¹	7.2 min	B7
< 0.3 nM	< 8.05e-05 s⁻¹	286000 M⁻¹ s⁻¹	> 136 min	B8
0.8 nM	0.000186 s⁻¹	224000 M⁻¹ s⁻¹	62.2 min	B9
69.3 nM	0.0032 s⁻¹	46200 M⁻¹ s⁻¹	3.6 min	B10
15.4 nM	0.00159 s⁻¹	103000 M⁻¹ s⁻¹	7.3 min	B11
5.3 nM	0.00438 s⁻¹	823000 M⁻¹ s⁻¹	2.6 min	B12
1.3 nM	0.000773 s⁻¹	577000 M⁻¹ s⁻¹	14.9 min	B13
1.7 nM	0.001 s⁻¹	578000 M⁻¹ s⁻¹	11.6 min	B14
27.3 nM	0.00194 s⁻¹	71200 M⁻¹ s⁻¹	5.9 min	B15
